Source: paper PMC8226212, “LaPT2 Gene Encodes a Flavonoid Prenyltransferase in White Lupin” (Frontiers in Plant Science, 2021)

Legend:
Experiment in all cases: HPLC product assay, yeast microsomes, Eadie-Hofstee plot
Format in all cases: biochemical, Lupinus albus
[1] = substrate: O=c1c(O)c(-c2ccc(O)c(O)c2)oc2cc(O)cc(O)c12; conditions: co-substrate DMAPP, 10 mM Mg2+, MOPS pH 7.0, 30°C
[2] = substrate: COc1ccc(-c2oc3cc(O)cc(O)c3c(=O)c2O)cc1; conditions: co-substrate DMAPP, 10 mM Mg2+, MOPS pH 7.0, 30°C
[3] = substrate: O=c1c(O)c(-c2ccc(O)cc2)oc2cc(O)cc(O)c12; conditions: co-substrate DMAPP, 10 mM Mg2+, MOPS pH 7.0, 30°C
[4] = substrate: O=c1c(O)c(-c2ccc(O)cc2O)oc2cc(O)cc(O)c12; conditions: co-substrate DMAPP, 10 mM Mg2+, MOPS pH 7.0, 30°C
[5] = substrate: O=c1c(O)c(-c2ccc(O)c(O)c2)oc2cc(O)ccc12; conditions: co-substrate DMAPP, 10 mM Mg2+, MOPS pH 7.0, 30°C
[6] = substrate: O=c1c(O)c(-c2ccccc2)oc2cc(O)cc(O)c12; conditions: co-substrate DMAPP, 10 mM Mg2+, MOPS pH 7.0, 30°C
[7] = substrate: O=C1c2c(O)cc(O)cc2O[C@H](c2ccc(O)cc2)[C@H]1O; conditions: co-substrate DMAPP, 10 mM Mg2+, MOPS pH 7.0, 30°C
[8] = substrate: CC(C)=CCOP(=O)(O)OP(=O)(O)O; conditions: co-substrate 400 μM kaempferol, 10 mM Mg2+, MOPS pH 7.0, 30°C

B1: LaPT2 (Lupinus albus) (protein)
chain: MGFVLAATSFPKAPSFTSGRSSWNSKEYTKNYYASSHVTTLWHKTGIIQKEPCFMMAWPQNLKLHCKVKGGDKRNYVMNAASGKSNEYETQDLDQRNNWGTLINALHVFFKFIRPTATLSLLLGATLTTLIAVEKLSDISAAYFIGLLQVMVVSSCMQVFMAGLNQLYDVEIDKINKPYLPLVSGELPFKNGVIIVATTFILGHLFPLIIGSGPLFWSFVFSSSLAIAYCADLPLLRWKRHSALTALNYIIDLGGVKPLGYVLHMQTYVFKRPPTFSRPLIFCMAMSSVFAIIIAIFKDITDMEGDEKFGIKSLSLHLGKKPVFWICVSLLQMAYVVAILMGTLSPFLWVKIAMGLGHGILASLVSYYANSVDLKSNPAIQSFYMFIWKLLTVEYFLIPLFR
notes: open reading frame in pDR196GW, yeast W303A1 microsomal fraction; contig deduced as 407 aa (GFP construct named 88-403); predicted 87-aa transit peptide, no truncation stated for the assay
- Km [1]: 102.81 ± 6.41 µM
- Km [2]: 115.19 ± 34.25 µM
- Km [3]: 74.07 ± 3.78 µM
- Km [4]: 20.85 ± 3.79 µM
- Km [5]: 10.02 ± 3.19 µM
- Km [6]: 20.66 ± 2.91 µM
- Km [7]: 20.08 ± 4.44 µM
- Km [8]: 66.11 ± 7.54 µM
